Key:
Format in all cases: binding, human
full-length SNX27 = experiment: nHU-MS, recombinant full-length SNX27 bait, total Jurkat extracts; details: apparent, Fig. 4D, n = 6
Experimental: The empty His6-AviTag-MBP-TEV vector was used to produce biotinylated MBP for control experiments. Proteins were coexpressed with BirA biotin ligase (PET21a-BirA, Addgene, no. 20857) in Escherichia coli BL21(DE3) cells. At isopropyl-β-D-thiogalactopyranoside (IPTG) induction (1 mM IPTG at 18°C overnight), 50 μM biotin was added to the media. Harvested cells were lysed in a buffer containing 50 mM tris (pH 7.5), 150 to 300 mM NaCl, 50 μM biotin, 2 mM β-mercaptoethanol, cOmplete EDTA-free protease inhibitor cocktail (Roche, Basel, Switzerland), 1% Triton X-100, and trace amount of deoxyribonuclease, ribonuclease, and lysozyme. Lysates were frozen at −20°C before further purification steps. Lysates were sonicated and centrifuged for clarification. Expressed proteins were captured on in-house prepacked Ni-IDA (Protino Ni-IDA Resin, Macherey-Nagel, Duren, Germany) columns and were washed with at least 10 column volumes of cold wash buffer [50 mM tris (pH 7.5), 150 mM NaCl, and 2 mM β-mercaptoethanol] before elution with 250 mM imidazole. The Ni elution was collected directly on a preequilibrated amylose column (amylose high flow resin, New England Biolabs, Ipswich, MA). Amylose column was washed with 5 column volumes of cold wash buffer before fractionated elution in a buffer containing 25 mM Hepes (pH 7.5), 150 mM NaCl, 1 mM TCEP, 10% glycerol, 5 mM maltose, and cOmplete EDTA-free protease inhibitor cocktail. The concentration of proteins was determined by their ultraviolet absorption at 280 nm before aliquots were snap-frozen in liquid nitrogen and stored at −80°C.
(§1) For saturating streptavidin resin with biotinylated peptides or biotin, 50 μl of streptavidin resin was mixed with biotin or peptide at 40 to 60 μM concentration in 6 to 6.5 resin volume for 60 min. To saturate streptavidin resin with biotinylated proteins, 50 μl of streptavidin resin (Streptavidin Sepharose High Performance, Cytiva) was mixed with biotinylated MBP or MBP-PDZ at 40 to 50 μM concentration in 20× resin volume for 60 min. After saturation, resins were washed a single time [10 resin volume, holdup buffer: 50 mM tris (pH 7.5), 300 mM NaCl, and 1 mM TCEP, 0.22-μm filtered] and were depleted with biotin (10 resin volume, 10 min, holdup buffer supplemented with 100 μM biotin). Last, resins were washed two times (10 resin volume, holdup buffer).
(§2) For single-point nHU experiments carried out at ~10 μM bait concentration, 50 μl of saturated streptavidin resin was mixed with 200 μl of cell lysate (2 mg/ml). Titration experiments were carried out by mixing control and bait-saturated resin and keeping the total resin volume constant; e.g., ~5 μM bait concentration can be achieved by mixing 25 μl of bait-saturated streptavidin resin with 25 μl of control resin and 200 μl of cell lysate (2 mg/ml). Control and bait-saturated resins were prepared in larger amounts, and a serial dilution was prepared with these presaturated resins to achieve different resin ratios.
Unless specified elswhere, the nHU mixture was incubated at 4°C for 2 hours. After the incubation ended, the resin was separated from the supernatant by a brief centrifugation (15 s, 2000 g). Then, half of the supernatant was removed by pipetting without any delay to avoid any resin contamination; e.g., 100 μl of supernatant is collected if 200 μl of cell lysate was used as analyte. Alternatively, the supernatant can be centrifuged an additional time to clarify it further, removing any possible resin contamination. […]

SCRIB_PDZ_1 = experiment: nHU-MS, SCRIB_PDZ_1 bait, total Jurkat extracts (Exploris MS); details: SCRIB_PDZ_1&Jurkat (Exploris)
Excerpt: (§3) To further establish the repeatability and robustness of the nHU-MS assay, we repeated the experiments using a different mass spectrometer and six different PDZ domain baits taken from SCRIB (PDZ_1 and PDZ_2), discs large MAGUK scaffold protein 1 (DLG1, PDZ_1, and PDZ_2), Tax1 binding protein 3 (TAX1BP3), and SNX27 (fig. S3B and table S1). […] Of the studied baits, the PDZ domain of SNX27 turned out to be the most promiscuous with 103 statistically significant interaction partners (while 180 SNX27 binding partners were identified in total on the basis of the three independent nHU-MS experiments).
as §1, §2
(§4) Unless specified elswhere, the nHU mixture was incubated at 4°C for 2 hours. After the incubation ended, the resin was separated from the supernatant by a brief centrifugation (15 s, 2000 g). Then, half of the supernatant was removed by pipetting without any delay to avoid any resin contamination; e.g., 100 μl of supernatant is collected if 200 μl of cell lysate was used as analyte. Alternatively, the supernatant can be centrifuged an additional time to clarify it further, removing any possible resin contamination. In principle, the separation of the supernatant should be as fast as possible since any delay can perturb the equilibrium. […] Alternatively, the resin can be separated from the supernatant using filter plates (e.g., various products of Millipore, Burlington, MA) or spin columns (e.g., Pierce spin cups—cellulose acetate filter from Thermo Fisher Scientific, Waltham, MA) to achieve faster separation.
The nHU samples were precipitated with trichloroacetic acid (TCA) 20% overnight at 4°C and centrifuged at 14,000 rpm for 10 min at 4°C. The protein pellets were washed twice with 1 ml of cold acetone and air-dried. The protein extracts were solubilized in 8 M urea, reduced with 5 mM TCEP for 30 min, and alkylated with 10 mM iodoacetamide for 30 min in the dark. Double digestion was performed at 37°C with 500 ng of endoproteinase Lys-C (Wako, Richmond, USA) for 4 hours, followed by fourfold dilution and an overnight digestion with 500 ng of trypsin (Promega, Charbonnieres les Bains, France). Peptide mixtures were then desalted on a C18 spin-column and dried on a speed vacuum.
(§5) Samples were analyzed using an Ultimate 3000 nano-RSLC coupled in line via a nano-electrospray ionization source, with an LTQ-Orbitrap ELITE mass spectrometer (Thermo Fisher Scientific, San Jose, CA) or with the Orbitrap Exploris 480 mass spectrometer (Thermo Fisher Scientific, Bremen, Germany) equipped with a high field asymmetric ion mobility spectrometry (FAIMS) module. […]

SNX27_PDZ = experiment: nHU-MS, SNX27_PDZ bait, total Jurkat extracts, series 2 (Exploris MS); details: SNX27_PDZ&Jurkat (Exploris)
Excerpt: as §3, §1, §2, §4
(§6) The nHU samples were precipitated with trichloroacetic acid (TCA) 20% overnight at 4°C and centrifuged at 14,000 rpm for 10 min at 4°C. The protein pellets were washed twice with 1 ml of cold acetone and air-dried. […]
as §5

SCRIB_PDZ_2 = experiment: nHU-MS, SCRIB_PDZ_2 bait, total Jurkat extracts (Exploris MS); details: SCRIB_PDZ_2&Jurkat (Exploris)
Excerpt: as §3, §1, §2, §4, §6, §5

Molecule	pKapp (full-length SNX27)	pKapp (nHU-MS) (SCRIB_PDZ_1)	pKapp (nHU-MS) (SNX27_PDZ)	pKapp (nHU-MS) (SCRIB_PDZ_2)
WASH2: component of the WASH complex (protein) MTPVRMQHSLAGQTYAVPLIQPDLRREEAVQQMADALQYLQKVSGDIFSRISQQVEQSRSQVQAIGEKVSLAQAKIEKIKGSKKAIKVFSSAKYPAPERLQEYGSIFTGAQDPGLQRRPRHRIQSKHRPLDERALQEKLKDFPVCVSTKPEPEDDAEEGLGGLPSNISSVSSLLLFNTTENLYKKYVFLDPLAGAVTKTHVMLGAETEEKLFDAPLSISKREQLEQQVPENYFYVPDLGQVPEIDVPSYLPDLPGIANDLMYIADLGPGIAPSAPGTIPELPTFHTEVAEPLKVDLQDGVLTPPPPPPPPPPAPEVLASAPPLPPSTAAPVGQGARQDDSSSSASPSVQGAPREVVDPSGGRATLLESIRQAGGIGKAKLRSMKERKLEKKKQKEQEQVRATSQGGHLMSDLFNKLVMRRKGISGKGPGAGEGPGGAFARVSDSIPPLPPPQQPQAEEDEDDWES	5.47	–	–	–
Strumpellin: component of the WASH complex (protein, UniProt Q12768 1-1159, looked up) WASH complex subunit 5: MLDFLAENNLCGQAILRIVSCGNAIIAELLRLSEFIPAVFRLKDRADQQKYGDIIFDFSYFKGPELWESKLDAKPELQDLDEEFRENNIEIVTRFYLAFQSVHKYIVDLNRYLDDLNEGVYIQQTLETVLLNEDGKQLLCEALYLYGVMLLVIDQKIEGEVRERMLVSYYRYSAARSSADSNMDDICKLLRSTGYSSQPGAKRPSNYPESYFQRVPINESFISMVIGRLRSDDIYNQVSAYPLPEHRSTALANQAAMLYVILYFEPSILHTHQAKMREIVDKYFPDNWVISIYMGITVNLVDAWEPYKAAKTALNNTLDLSNVREQASRYATVSERVHAQVQQFLKEGYLREEMVLDNIPKLLNCLRDCNVAIRWLMLHTADSACDPNNKRLRQIKDQILTDSRYNPRILFQLLLDTAQFEFILKEMFKQMLSEKQTKWEHYKKEGSERMTELADVFSGVKPLTRVEKNENLQAWFREISKQILSLNYDDSTAAGRKTVQLIQALEEVQEFHQLESNLQVCQFLADTRKFLHQMIRTINIKEEVLITMQIVGDLSFAWQLIDSFTSIMQESIRVNPSMVTKLRATFLKLASALDLPLLRINQANSPDLLSVSQYYSGELVSYVRKVLQIIPESMFTSLLKIIKLQTHDIIEVPTRLDKDKLRDYAQLGPRYEVAKLTHAISIFTEGILMMKTTLVGIIKVDPKQLLEDGIRKELVKRVAFALHRGLIFNPRAKPSELMPKLKELGATMDGFHRSFEYIQDYVNIYGLKIWQEEVSRIINYNVEQECNNFLRTKIQDWQSMYQSTHIPIPKFTPVDESVTFIGRLCREILRITDPKMTCHIDQLNTWYDMKTHQEVTSSRLFSEIQTTLGTFGLNGLDRLLCFMIVKELQNFLSMFQKIILRDRTVQDTLKTLMNAVSPLKSIVANSNKIYFSAIAKTQKIWTAYLEAIMKVGQMQILRQQIANELNYSCRFDSKHLAAALENLNKALLADIEAHYQDPSLPYPKEDNTLLYEITAYLEAAGIHNPLNKIYITTKRLPYFPIVNFLFLIAQLPKLQYNKNLGMVCRKPTDPVDWPPLVLGLLTLLKQFHSRYTEQFLALIGQFICSTVEQCTSQKIPEIPADVVGALLFLEDYVRYTKLPRRVAEAHVPNFIFDEFRTVL	4.94	–	–	–

The next lines start with the values.

pKapp (full-length SNX27)	pKapp (nHU-MS) (SCRIB_PDZ_1)	pKapp (nHU-MS) (SNX27_PDZ)	pKapp (nHU-MS) (SCRIB_PDZ_2)	Molecule
–	4.6996	4.859	–	DNAJC16 (protein, UniProt Q9Y2G8 26-782, looked up) DnaJ homolog subfamily C …: LDFDPYRVLGVSRTASQADIKKAYKKLAREWHPDKNKDPGAEDKFIQISKAYEILSNEEKRSNYDQYGDAGENQGYQKQQQQREYRFRHFHENFYFDESFFHFPFNSERRDSIDEKYLLHFSHYVNEVVPDSFKKPYLIKITSDWCFSCIHIEPVWKEVIQELEELGVGIGVVHAGYERRLAHHLGAHSTPSILGIINGKISFFHNAVVRENLRQFVESLLPGNLVEKVTNKNYVRFLSGWQQENKPHVLLFDQTPIVPLLYKLTAFAYKDYLSFGYVYVGLRGTEEMTRRYNINIYAPTLLVFKEHINRPADVIQARGMKKQIIDDFITRNKYLLAARLTSQKLFHELCPVKRSHRQRKYCVVLLTAETTKLSKPFEAFLSFALANTQDTVRFVHVYSNRQQEFADTLLPDSEAFQGKSAVSILERRNTAGRVVYKTLEDPWIGSESDKFILLGYLDQLRKDPALLSSEAVLPDLTDELAPVFLLRWFYSASDYISDCWDSIFHNNWREMMPLLSLIFSALFILFGTVIVQAFSDSNDERESSPPEKEEAQEKTGKTEPSFTKENSSKIPKKGFVEVTELTDVTYTSNLVRLRPGHMNVVLILSNSTKTSLLQKFALEVYTFTGSSCLHFSFLSLDKHREWLEYLLEFAQDAAPIPNQYDKHFMERDYTGYVLALNGHKKYFCLFKPQKTVEEEEAIGSCSDVDSSLYLGESRGKPSCGLGSRPIKGKLSKLSLWMERLLEGSLQRFYIPSWPELD
–	4.571	–	4.538	FUS (protein, UniProt P35637 1-526, looked up) RNA-binding protein FUS: MASNDYTQQATQSYGAYPTQPGQGYSQQSSQPYGQQSYSGYSQSTDTSGYGQSSYSSYGQSQNTGYGTQSTPQGYGSTGGYGSSQSSQSSYGQQSSYPGYGQQPAPSSTSGSYGSSSQSSSYGQPQSGSYSQQPSYGGQQQSYGQQQSYNPPQGYGQQNQYNSSSGGGGGGGGGGNYGQDQSSMSSGGGSGGGYGNQDQSGGGGSGGYGQQDRGGRGRGGSGGGGGGGGGGYNRSSGGYEPRGRGGGRGGRGGMGGSDRGGFNKFGGPRDQGSRHDSEQDNSDNNTIFVQGLGENVTIESVADYFKQIGIIKTNKKTGQPMINLYTDRETGKLKGEATVSFDDPPSAKAAIDWFDGKEFSGNPIKVSFATRRADFNRGGGNGRGGRGRGGPMGRGGYGGGGSGGGGRGGFPSGGGGGGGQQRAGDWKCPNPTCENMNFSWRNECNQCKAPKPDGPGGGPGGSHMGGNYGDDRRGGRGGYDRGGYRGRGGDRGGFRGGRGGGDRGGFGPGKMDSRGEHRQDRRERPY
